Data as given in the DeepSol protein solubility set.

Experiment: soluble on expression in E. coli; label from the status in PepcDB or PDB records

Q: Which “soluble on expression in E. coli” value does the source give for “MSLKPIIPEDERSKEPLDTDRVIYHPDMIRANEWVLNEYEAPYRELCIFVPCAKRKPYHESPSHKKFDRIIFGIAKPEDVHIVTFGTCGITPRELDTQYPFMHYSFMMGKCNVAKIKRDFIKMESERLAAYLEKTRDNYKHRIAYCIGDFRTAMEKAVEMVDVEVDIVPRESTIQKMIQPDKPFIYNSLSSREYLQDFSDAITDALKLPKRKVGLKEDLSVDDADWYLLEGHHHHHH” here?
A: Its value is “soluble”.

Q: With “MSLKPTIYDIAKKANVSKSTVSRVLNNQPNISDKAKASVLQAIKELNYEPSKIARGLSGNGFDAILALSHRTSHTTYGNPFFSDVIQSISAVSEQNNFDLILQTAKTPEEELEKCAKKIQEKMIRGIIILSSTMDETLLFELDQYNIPIVVIGKVGNDYTNIYSVDTDNFQDSYDLVETLIKNGHRHIGCLHAPTEVYVSNDRLNGYRQCLFDHHLDIRNEWIIDGGFRLEDSMAAMNDLMKLRERPTAIFSTDALKSLSIYKVAEQSGKQIPDDLSIAGFSDPLLSSLFSPQLTRIDIPTNQLGIKATELLFQLIHHQYPEEKRIILSTEITLTDSIEGHHHHHH” as the sequence, how does the “soluble on expression in E. coli” value read?
A: Its value is “not soluble”.

Q: With “MSLKQINIQKFITAKRIAKYSSLESYKLNILESQKYYSSLSILEVSLRNAIDFYFTERYGESWTDLLDIFKYKEISKIEEAKNFLKLKQEECTKDKIVAELNFGFCTSLFSKTYEEQMRKNNLIKIFNNLPKNKQINRAYLSRKLNNIRNFRNRIFHYEKIINKPEYLNIENDINEILEFLDKEILGFSIGLNIEGHHHHHH” as the sequence, how does the “soluble on expression in E. coli” value read?
A: Its value is “soluble”.

Q: Which “soluble on expression in E. coli” value does the source give for “MSLKRMLAEFEKIQAILMAFPHEFSDWAYCIKEARESFLNIIQTIAKHAKVLVCVHTNDTIGYEMLKNLPGVEIAKVDTNDTWARDFGAISIENHGVLECLDFGFNGWGLKYPSNLDNQVNFKLKSLGFLKHPLKTMPYVLEGGSIESDGAGSILTNTQCLLEKNRNPHLNQNGIETMLKKELGAKQVLWYSYGYLKGDDTDSHTDTLARFLDKDTIVYSACEDKNDEHYTALKKMQEELKTFKKLDKTPYKLIPLEIPKAIFDENQQRLPATYVNFLLCNDALIVPTYNDPKDALILETLKQHTPLEVIGVDCNTLIKQHGSLHCVTMQLYEGGSHHHHHH” here?
A: The value was “soluble”.

Q: For “MSLKRVLAVQRISRDTEASSALTRQDEALTRAIRQGTYREVGRVVDATVSGAVHLDQRPSLRRWLAEPLVHEWDVLMVTEQDRITRDDMHWWHFVDWTLKNGKDVEVLDDPTFDIQSEDGRMLAGIKAAQAAKYRKAVQAKQLDRTQFFRENRLWNGGVWPFGYRAEVFSHLGERRKRLTVDPCTSRLVREAYDRLVHGEGTVYAVARDWNLRGVPSARDHQRREQNKDLPEQEHRPEKGTRWSVTPLRNILRSPALMGVMMHRSEPVLDAEGQPVVWAEPVLTSEEFAELQEVVLTEQRTAESGPGKRWRTPLLGVVFCMCGRPMYVRHQKNHLADGTTAVLTYYQCRSVSEMNRCEAPSTWRAESLCAVVERDFLDQAGDRTEMKRTYVPGRDHTAAIAELRSALANLTVAIGTATAPAAVAVLTRQMDEHARTITRLEAEPVVHARWKEEPTGAAYREQWRAVKDWESRAALLAKAGVRFFCEGTHKSGSVHMYLPSASQRRVSGVSLSKEAVEVVGIGPLEEEARRYFTDLRRTKGMGPGFWYSREGHHHHHH”, which “soluble on expression in E. coli” value is on record?
A: Its value is “not soluble”.

Q: For “MSLKRYSGFLIDLDGTMYRGSEVITEAVAFVKQLEKQSASYLFVTNNSTKSPETVATLLKSMDVPATKEHVFTSSMAMASYLTRTKEFVRAFVIGEEGLLESLKESGMMVSEDEQPDYVVMGLDRAISYEKLAKAATYVRQGAKFFITNGDAALPTEKGLMPGNGSLAAVVATTTGVKPFVVGKPSPIIIEEALKRLGTTKEETLLIGDNYDTDILAGIHAGIDTLLVHTGVTTKEALKQKEAQPTYTCESLADWQRSIEEEGHHHHHH”, which “soluble on expression in E. coli” value is on record?
A: Its value is “soluble”.

Q: Which “soluble on expression in E. coli” value does the source give for “MSLKSKEKLFIANVADSNLNEADKDKAKNEIAKLNASQVVATTLASSVRETEKQEKIETDICNENAISESKLDGIDDLEFVDENYYISPSLDTLATLSKYEIQKVENLVVGNKQYGKIEFLDPVDLSDIPLGSICDDLVVFQPMSVLLYNNSTNVPEKGKGLNVRARISCYNCYPLDKSTRKPIKDPNHRIMERYSEKLKKIPHTHFESYDPASGTYCFTVDHALEGHHHHHH” here?
A: The value was “soluble”.

Q: With “MSLKSQNTLWKIRKIWAKFQRYTISYKQEIIGTFNPQAQMILMNHQSALDIIALEELYPKNLCWIAKKELGEIPIFKVAMKKPKLLCIDRKNPRDLVRVLKEAKERISEDRVLAIFPEGTRSKNEKMLKFQSGAKILSEKLNLKVQPILIVDSAKILDTKSFSASSGVLKIICMDLVDTNDEKWLENTRKKMQELLDQERAKLCEGHHHHHH” as the sequence, how does the “soluble on expression in E. coli” value read?
A: Its value is “not soluble”.

Q: For “MSLKTHKKVKIPILLKIAKLPKSSFYEWKHKLENTIDKDKELKEMIVDIFSKSFETYGYRRLKMALKSKGYIVNHKKILRLTKELGVQCIKFRTKNGRYSSYKGTVGKIADNVLKRNFHSLQANKLWCTDVTEFKVNGQKLYLSPIIDLYNDEIISYSIQTNPNLNLTNSMLDKALKKVKNTNGFLIHSDQGFHYQHISWAKKLEENNITQSMSRKGNCLDNAIIENFFGLLKQEIYYGEKYNSVEELTKRIHKYIYWYNNIRIKEKLKGLSPVQFRKQSCYNIEGHHHHHH”, which “soluble on expression in E. coli” value is on record?
A: The value was “not soluble”.

Q: For “MSLKTKYIFVTGGVVSSLGKGITAASLGRLLKNRGLKVSIQKFDPYINVDPGTMSPYQHGEVFVTDDGAETDLDLGHYERFIDENLSKNSNVTTGKVYWSVINKERRGDYLGGTVQVIPHITNELKERVYRVAKEKDVDVVITEIGGTVGDIESLPFLEAIRQIKYEVGFGNSCFIHVTLLPYLRKAGEIKTKPTQHSVKELRGIGIQPDIIVCRTEKEISKDVRSKIGLFCNIDGDSVISNLDAENLYEVPLMLHDQGLDSLVCKKLELECQEVDNSEWESMVKNIKSLSGEVTIGLVGKYVELHDAYISVVESLNHGGFANNVSVNVKWINSEEVTKDNVDSVLSDVDGILVPGGFGDRGIEGKIEAIRWARENKIPFFGICLGMQCAVIEYARNVLGLEGAHSSEIDPQTKYPVIDLMPDQKDIDDKGGTMRLGLYACKLSKDTNAYDAYEEEVIYERHRHRYEFNNEFRKRLTEEGLILAGTSPDDRLVEIVEIKDHPWFVGVQFHPEFKSRPNRPHALFRDFIKVACTVKEKEGHHHHHH”, which “soluble on expression in E. coli” value is on record?
A: Its value is “soluble”.

Q: Which “soluble on expression in E. coli” value does the source give for “MSLKTLAFDTSNKTLSLAILDDETLLADMTLNIQKKHSVSLMPAIDFLMTCTDLKPQDLERIVVAKGPGSYTGLRVAVATAKTLAYSLNIALVGISSLYALAASTCKQYPNTLVVPLIDARRQNAYVGYYRQGKSVMPQAHASLEVIIEQLVEEGQLIFVGETAPFAEKIQKKLPQAILLPTLPSAYECGLLGQSLAPENVDAFVPQYLKRVEAEENWLKDNEIKDDSHYVKRIEGHHHHHH” here?
A: Its value is “soluble”.

Q: With “MSLKTLSLCPICLKRIPATILEEDGKIIIKKTCPEHGEFKDIYWGDAELYKKFDKYEFIGKIEVTNTKVKNGCPYDCGLCPNHKSTTILANIDVTNRCNLNCPICFANANKSGKVYEPSFEDIKRMMENLRKEIPPTPAIQFAGGEPTVRSDLPELIKLARDMGFLHVQLATNGIKLKNINYLKKLKEAGLSTIYLQFDGISEKPYLVARGKNLLPIKQKVIENCKKVGFDSVVLVPTLVRGVNDNEVGGIIRYAAENVDVVRGINFQPVSFTGRVDEKTLLEGRITIPDFIKLVEEQTDGEITEEDFYPVPSVAPISVLVEKLTNDRKPTLSSHQHCGTSTYVFVDEDGKLIPITRFIDVEGFLEIVKEKIEEIGKSKMHDVKVLGEIALKLPSLIDLDKAPKSVNIKKIIDLILSVLKSDYSALAELHYHMLMISCMHFMDAYNFDVKRVMRCCIHYATPDDRIIPFCTYNTLHRQEVEEKFSIPLEEWKRMHKIGGEDDREDYEGHHHHHH” as the sequence, how does the “soluble on expression in E. coli” value read?
A: The value was “soluble”.

Q: Which “soluble on expression in E. coli” value does the source give for “MSLKTQQSYQQRDDKGTLYLVATPIGNLEDVTFRAIRTLKEADQIAAEDTRQTKKLLNHFDIATKLVSYHEHNKETMGKRLIDDLIEGRTIALVSDAGMPAISDPGYELVVSAIKEGIAVIPIPGANAAVTALIASGLPTESFQFIGFLPRQKKQRRQALEETKPTKATLIFYESPHRLKDTLDDMLLILGNRHVSICRELTKTYEEFLRGTLEEAVHWAREATIKGEFCLIVEGNGEKVEPEEVWWESLSPVQHVEHYIALGFRSKEAIKQVATDRGVPKRDIYNIYHQEEGHHHHHH” here?
A: The value was “soluble”.

Q: Which “soluble on expression in E. coli” value does the source give for “MSLKTVEEQAKNIYQLLEMVYGTSPWTLEQVLIDIRRDQTDYFLLYDHDKLLGFLAIQDLAGEVEMTQIAILPSHQELGLASQLMTHLDSIESDIFLEVRESNHRAQGLYQKFGFKFIGKRPDYYRNPIETALLMKREGKHDREGHHHHHH” here?
A: Its value is “soluble”.
